Where a chain is given by its changes, count along the chain named. Numbers in names are those of the source. Blank lines part the entries; values can stand above or below the binder they belong to.
Key:
[1] = target: T1, Human LRRC15 Protein, His Tag (Acro Biosystems) (human, UniProt Q8TF66 22-538, limits assumed); assay: BLI (Octet), Ab on anti-human Fc sensor, LRRC15 associated at pH 7.4
T1 construct: not shown: His tag
T1 sequence (looked up): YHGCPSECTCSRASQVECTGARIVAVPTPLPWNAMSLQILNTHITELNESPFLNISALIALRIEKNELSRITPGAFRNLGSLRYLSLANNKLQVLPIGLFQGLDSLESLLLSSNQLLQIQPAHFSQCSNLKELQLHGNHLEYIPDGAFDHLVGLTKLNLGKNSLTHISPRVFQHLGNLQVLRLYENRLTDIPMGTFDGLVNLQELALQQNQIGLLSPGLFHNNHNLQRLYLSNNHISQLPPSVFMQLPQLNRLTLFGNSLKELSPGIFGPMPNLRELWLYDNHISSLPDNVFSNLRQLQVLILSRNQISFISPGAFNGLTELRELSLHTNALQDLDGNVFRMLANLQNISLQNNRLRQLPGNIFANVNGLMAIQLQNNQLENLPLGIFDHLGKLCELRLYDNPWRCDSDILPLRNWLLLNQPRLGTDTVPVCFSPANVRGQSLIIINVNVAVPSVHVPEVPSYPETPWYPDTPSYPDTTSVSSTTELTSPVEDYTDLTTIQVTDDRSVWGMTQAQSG
Experimental: For each individual plot, antigen binding proteins were captured on anti-human Fc biosensors and associated with LRRC15 at pH 7.4. Dissociation was at pH 7.4 (black) or pH 5.4 (grey). Major X-axis ticks=100 seconds, with left dashed vertical line=0 seconds. Major Y-axis ticks=0.5 nm and octet plots are shown MYT5712 and MYT6080-MYT6121.
After allowing for a period of protein expression, cell culture supernatants are collected, quantified, and the pH dependence of the variant is evaluated using biolayer interferometry (BLI) or other methods known to the art. Briefly, cell culture supernatants are normalized to an antibody expression level of 50 μg/mL, and captured on an anti-human Fc sensor (Forte Bio). A baseline is established using 1× kinetics buffer (Forte Bio), and the sensor is associated with 100 nM of LRRC15 in 1×PBS at pH 7.4 for 300 sec to generate an association curve. In the dissociation phase, the antibody-antigen complex on the sensor is exposed to 1×PBS at either pH 5.5 or pH 7.4 for 300-500 sec. […]

[2] = target: T1, Human LRRC15 Protein, His Tag (Acro …); assay: BLI; dissociation pH 7.4 black, pH 5.4 grey [2/2); D00020 FIG. 4B (2/2]
Experimental: Desirable mutations were transferred to a humanized framework (humanized, MYT 8387-8411). After allowing for four days of protein expression, cell culture supernatants were collected, quantified by SDS-PAGE analysis, and the pH dependence of the variant was evaluated using biolayer interferometry (BLI) on an Octet RED 96e instrument. Briefly, cell culture supernatants were diluted based on qualitative expression level of the variant determined by visual examination of SDS-PAGE gels, 5 μL of cell culture supernatant was diluted into 195 μL of 1×PBST, pH 7.4 for high expressors, 25 μL of cell culture supernatant was diluted into 175 μL of 1×PBST, pH 7.4 for medium expressors and 100 μL of cell culture supernatant was diluted into 100 μL of 1×PBST, pH 7.4 for low expressors for loading onto the sensor tips. The resulting diluted supernatants were then captured on an anti-human Fc sensor (Forte Bio). A baseline was established using 1×PBST (50 mM Potassium Phosphate Buffer+150 mM NaCl+0.05% Tween 20) pH 7.4, and the […] was associated with 50 nM of LRRC15 (Human LRRC15 Protein, His Tag, Acro Biosystems) in 1×PBST pH 7.4 for 120 sec to generate an association curve. In the dissociation phase, the antibody-antigen complex on the sensor was exposed to 1×PBST pH 7.4 or pH 5.4, for 300 sec. Association and dissociation phase curves were examined for the starting ABPC antibody (with no substitutions) and each corresponding antibody variant at pH 5.4 and pH 7.4 to inform on two criteria: a) enhanced dissociation (i.e., higher koff values) at pH 5.4 due to histidine substitution compared to the starting ABPC, (with no substitutions), and b) reduced dissociation at pH 7.4 (i.e., lower koff values) compared to pH 5.4 in the antibody variant itself and with the starting ABPC (with no substitutions).
The methods of Examples 9-10 were applied to RabMAb clone 29F1 (rabbit VH SEQ ID NO: 572 and VL SEQ ID NO: 578; and humanized VH SEQ ID NO: 576 and VL SEQ ID NO: 582).

[3] = target: T2, LRRC15 on the surface of LRRC15+ cells (SAOS-2, U87MG) (UniProt Q8TF66 22-581, limits assumed); assay: cell-based or functional assay
T2 sequence (looked up): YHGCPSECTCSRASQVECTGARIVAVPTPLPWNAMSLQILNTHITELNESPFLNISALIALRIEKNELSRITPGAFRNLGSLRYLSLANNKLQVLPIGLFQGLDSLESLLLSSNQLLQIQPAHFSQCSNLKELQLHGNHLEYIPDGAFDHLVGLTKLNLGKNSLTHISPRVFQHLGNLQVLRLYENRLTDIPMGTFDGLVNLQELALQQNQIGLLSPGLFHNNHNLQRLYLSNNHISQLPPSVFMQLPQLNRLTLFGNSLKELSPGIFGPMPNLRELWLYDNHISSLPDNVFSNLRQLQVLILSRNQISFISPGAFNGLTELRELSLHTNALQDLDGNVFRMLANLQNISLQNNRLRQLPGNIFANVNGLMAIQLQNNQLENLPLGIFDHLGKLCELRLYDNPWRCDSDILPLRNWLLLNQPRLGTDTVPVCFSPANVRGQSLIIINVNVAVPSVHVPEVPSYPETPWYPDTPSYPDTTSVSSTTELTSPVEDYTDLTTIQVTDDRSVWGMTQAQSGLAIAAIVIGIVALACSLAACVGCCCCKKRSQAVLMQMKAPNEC

[4] = target: T3, LRRC15 on LRRC15 positive cell lines SAOS2 and G292 (UniProt Q8TF66 22-581, limits assumed); assay: cell binding on G292 cells (LRRC15 positive), pH 6.4
T3 construct: whole, on cells
T3 sequence (looked up): T2 sequence (looked up)

[5] = target: T3, LRRC15 on LRRC15 positive cell lines …; assay: cell binding on G292 cells (LRRC15 positive), pH 7.4; design: unit not given here
[6] = target: T3, LRRC15 on LRRC15 positive cell lines …; assay: cell binding on SAOS2 cells (LRRC15 positive), pH 6.4
[7] = target: T3, LRRC15 on LRRC15 positive cell lines …; assay: cell binding on SAOS2 cells (LRRC15 positive), pH 7.4; design: unit not given here

binding result [1]: no binding (tested: 50 nM)
B1: MYT8511 (antibody, V domains shown)
VH: QQQLVESGGGLVKPGASLTLTCKASGHHFSGSYWICWVRQAPGKGLEWIGCHNGGSLDITYYASWAKGRFTISKASSTTVTLQKTSLTAADTATYFCASDTSYTAYGNFYFNLWGPGTLVTVSS
VL: AQVLTQTASPVSAAVGGTVTINCQSSQSVLNNNWLAWYQQKPGQPPKLLIYDASSLASGVPSRFKGSGSGTQFTLTISDLESDDAATYYCQGEFSCGSADCNAFGGGTEVVVKG
notes: Rabbit 24D9 VH combination variant; also called 24D9 VH combo F27H, S28H, I52H

binding result [2]: binds
B2: MYT9496 (antibody, V domains shown)
VH: EVQLVESGGGLVQPGGSLRLSCTASGFSFSSSHWICWVRQAPGKGLEWVGCIYAGSIGSTYYASWAKGRFTISRDTSKNTVYLQMNSLRAEDTAVYYCARADNDIYNYYFNLWGQGTLVTVSS
VL: EIVMTQSPSTLSASVGDRVIITCQASENIYNYLAWYQQKPGKAPKLLIYYASTLASGVPSRFSGSGSGAEFTLTISSLQPDDFATYYCQSGYVSKSSTFGQGTKLTVL
notes: also called hu29F1 VH P102D

binding result [2]: binds
B3: MYT9498 (antibody, V domains shown)
VH: B2 VH with D102P, D104A
VL: B2 VL
notes: also called hu29F1 VH D104A

binding result [2]: binds
B4: MYT9506 (antibody, V domains shown)
VH: B2 VH with D102P, L112D
VL: B2 VL
notes: also called hu29F1 VH L112D

binding result [2]: binds
B5: MYT9505 (antibody, V domains shown)
VH: B2 VH with D102P, N111D
VL: B2 VL
notes: also called hu29F1 VH N111D

B6: Samrotamab V205C ADC (antibody, part only; not given: V205C light chain and payload, V domains shown, part only)
VH: EVQLVQSGAEVKKPGASVKVSCKASGYKFSSYWIEWVKQAPGQGLEWIGEILPGSDTTNYNEKFKDRATFTSDTSINTAYMELSRLRSDDTAVYYCARDRGNYRAWFGYWGQGTLVTVSS
20 nM Efficacy (cytotoxicity of candidates against SAOS-2 cells) [3]: 16.4

Affinity [4]: 0.187
Affinity [5]: 0.165
Affinity [6]: 0.336
Affinity [7]: 0.31
B7: MYT5438, samrotamab ADC, Hinge Conjugated, DAR 2.0 (antibody, V domains shown)
VH: B6 VH
VL: DIQMTQSPSSLSASVGDRVTITCRASQDISNYLNWYQQKPGGAVKFLIYYTSRLHSGVPSRFSGSGSGTDYTLTISSLQPEDFATYFCQQGEALPWTFGGGTKVEIK
modifications: ADC: payload conjugated at the hinge, DAR 2.0 (payload not given) ; ADC: payload conjugated at hinge cysteines, DAR 2.0. The letters do not carry it.
notes: also called Sam; ADC, Hinge (DAR 2.0); Samrotamab WT

Affinity [4]: 0.676
Affinity [5]: 0.528
Affinity [6]: 0.92
Affinity [7]: 0.84
B8: MYT2737 (antibody, V domains shown)
VH: B6 VH
VL: B7 VL with Y50H
notes: also called Sam; LC His Variant; samrotamab LC His Var

Affinity [4]: 0.251
Affinity [5]: 0.155
Affinity [6]: 0.398
Affinity [7]: 0.296
B9: MYT3315 (antibody, V domains shown)
VH: EVQLVESGGGLVQPGGSLRLSCAVSGFSLTSYGVHWVRQATGKGLEWLGVIWAGGSTNYNSALMSRLTISKENAKSSVYLQMNSLRAGDTAMYYCATHMITEDYYGMDYWGQGTTVTVSS
VL: DIVMTQSPDSLAVSLGERATINCKSSQSLLNSRTRKNYLAWYQQKPGQSPKLLIYWASTRHSGVPDRFSGSGSGTDFTLTISSLQAEDVAVYYCKQSYNLPTFGGGTKVEIK
notes: also called hu139.10 LC His Variant; hu139.10 LC His Var

Source: patent US20250352661A1 (MYTHIC THERAPEUTICS, published 2025)
